Reference: US5703220

Legend:
[1] = target: human melanocortin-4 (MC4) receptor (human)
[2] = target: human melanocortin-1 (MC1) receptor (human)

Row | EC50 of cAMP response in transfected Hepa cells [1] | efficacy of cAMP response in transfected Hepa cells (% of the maximum response of α-MSH) [1] | cAMP generation in transfected L-cells (fold lower potency) [2] | Substance
1 | 100 nM | 75 | – | Pro^11 γ-MSH (peptide)
2 | 20 nM | 45 | – | γ-MSH (peptide)
3 | – | – | 10 | β-MSH (peptide)
